T1: human neutrophil elastase (human, UniProt P08246 30-247, limits assumed)
T1 sequence (looked up): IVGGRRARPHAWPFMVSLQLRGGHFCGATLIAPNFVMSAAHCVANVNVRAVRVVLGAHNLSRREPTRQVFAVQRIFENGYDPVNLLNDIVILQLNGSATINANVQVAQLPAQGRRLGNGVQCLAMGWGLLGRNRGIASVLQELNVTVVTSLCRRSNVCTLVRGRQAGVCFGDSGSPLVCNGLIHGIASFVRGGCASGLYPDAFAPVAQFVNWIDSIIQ

T2: human neutrophil cathepsin G (human, UniProt P08311 21-244)
T2 sequence (looked up): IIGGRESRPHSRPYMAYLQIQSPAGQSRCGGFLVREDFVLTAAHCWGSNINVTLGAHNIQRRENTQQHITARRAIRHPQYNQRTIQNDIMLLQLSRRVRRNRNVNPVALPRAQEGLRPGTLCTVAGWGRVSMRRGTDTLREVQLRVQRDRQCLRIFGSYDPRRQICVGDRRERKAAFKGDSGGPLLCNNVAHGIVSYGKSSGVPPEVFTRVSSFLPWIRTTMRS

B1: LEAQ.502 (other)
chain: SPVDICTAKPRDIPMNPMCIYRSPEKKATEDEGSEQKIPEATNRRVWELSKANSRFATTFYQHLADSKNDNDNIFLSPLSISTAFAMTKLGACNDTLQQLMEVFKFDTISEKTSDQIHFFFAKLNCRLYRKANKASKLVSANRLFGDKSLTFNETYQDISELVYGAKLQPLDFKENAEQSRAAINKWVSNKTEGRITDVIPSEAINELTVLVLVNTIYFKGLWKSKFSPENTRKELFYKADGESCSASMMYQEGKFRYRRVAEGTQVLELPFKGDDITMVLILPKPEKSLAKVEKELTPEVLQEWLDELEEMMLVVHMPRFRIEDGFSLKEQLQDMGLVDLFSPEKSKLPGIVAEGRDDLYVSDAFHKAFLEVNEEGSEAAASTALSAQGRSLNPNRVTFKANRPFLVFIREVPLNTIIFMGRVANPCVK
notes: also called DES.LEAQ.502
B2: 13C.444 (other)
chain: SPVDICTAKPRDIPMNPMCIYRSPEKKATEDEGSEQKIPEATNRRVWELSKANSRFATTFYQHLADSKNDNDNIFLSPLSISTAFAMTKLGACNDTLQQLMEVFKFDTISEKTSDQIHFFFAKLNCRLYRKANKASKLVSANRLFGDKSLTFNETYQDISELVYGAKLQPLDFKENAEQSRAAINKWVSNKTEGRITDVIPSEAINELTVLVLVNTIYFKGLWKSKFSPENTRKELFYKADGESCSASMMYQEGKFRYRRVAEGTQVLELPFKGDDITMVLILPKPEKSLAKVEKELTPEVLQEWLDELEEMMLVVHMPRFRIEDGFSLKEQLQDMGLVDLFSPEKSKLPGIVAEGRDDLYVSDAFHKAFLEVNEEGSEAAASTELEVAPRSLNPNRVTFKANRPFLVFIREVPLNTIIFMGRVANPCVK
modifications: N-linked glycans added by Drosophila S2 cells; not carried by the letters
notes: Made in Drosophila S2 cells (DES) on the S137A background; N-terminus printed as SPVDI---
B3: LEAQ.506 (other)
chain: SPVDICTAKPRDIPMNPMCIYRSPEKKATEDEGSEQKIPEATNRRVWELSKANSRFATTFYQHLADSKNDNDNIFLSPLSISTAFAMTKLGACNDTLQQLMEVFKFDTISEKTSDQIHFFFAKLNCRLYRKANKASKLVSANRLFGDKSLTFNETYQDISELVYGAKLQPLDFKENAEQSRAAINKWVSNKTEGRITDVIPSEAINELTVLVLVNTIYFKGLWKSKFSPENTRKELFYKADGESCSASMMYQEGKFRYRRVAEGTQVLELPFKGDDITMVLILPKPEKSLAKVEKELTPEVLQEWLDELEEMMLVVHMPRFRIEDGFSLKEQLQDMGLVDLFSPEKSKLPGIVAEGRDDLYVSDAFHKAFLEVNEEGSEAAASTALHAQGRSLNPNRVTFKANRPFLVFIREVPLNTIIFMGRVANPCVK
notes: also called DES.LEAQ.506
B4: 13C.435 (other)
chain: SPVDICTAKPRDIPMNPMCIYRSPEKKATEDEGSEQKIPEATNRRVWELSKANSRFATTFYQHLADSKNDNDNIFLSPLSISTAFAMTKLGACNDTLQQLMEVFKFDTISEKTSDQIHFFFAKLNCRLYRKANKASKLVSANRLFGDKSLTFNETYQDISELVYGAKLQPLDFKENAEQSRAAINKWVSNKTEGRITDVIPSEAINELTVLVLVNTIYFKGLWKSKFSPENTRKELFYKADGESCSASMMYQEGKFRYRRVAEGTQVLELPFKGDDITMVLILPKPEKSLAKVEKELTPEVLQEWLDELEEMMLVVHMPRFRIEDGFSLKEQLQDMGLVDLFSPEKSKLPGIVAEGRDDLYVSDAFHKAFLEVNEEGSEAAASTELEWAGRSLNPNRVTFKANRPFLVFIREVPLNTIIFMGRVANPCVK
notes: as for B2
B5: 13C.434 (other)
chain: SPVDICTAKPRDIPMNPMCIYRSPEKKATEDEGSEQKIPEATNRRVWELSKANSRFATTFYQHLADSKNDNDNIFLSPLSISTAFAMTKLGACNDTLQQLMEVFKFDTISEKTSDQIHFFFAKLNCRLYRKANKASKLVSANRLFGDKSLTFNETYQDISELVYGAKLQPLDFKENAEQSRAAINKWVSNKTEGRITDVIPSEAINELTVLVLVNTIYFKGLWKSKFSPENTRKELFYKADGESCSASMMYQEGKFRYRRVAEGTQVLELPFKGDDITMVLILPKPEKSLAKVEKELTPEVLQEWLDELEEMMLVVHMPRFRIEDGFSLKEQLQDMGLVDLFSPEKSKLPGIVAEGRDDLYVSDAFHKAFLEVNEEGSEAAASTELEFAGRSLNPNRVTFKANRPFLVFIREVPLNTIIFMGRVANPCVK
notes: as for B2
B6: 13C.433 (other)
chain: SPVDICTAKPRDIPMNPMCIYRSPEKKATEDEGSEQKIPEATNRRVWELSKANSRFATTFYQHLADSKNDNDNIFLSPLSISTAFAMTKLGACNDTLQQLMEVFKFDTISEKTSDQIHFFFAKLNCRLYRKANKASKLVSANRLFGDKSLTFNETYQDISELVYGAKLQPLDFKENAEQSRAAINKWVSNKTEGRITDVIPSEAINELTVLVLVNTIYFKGLWKSKFSPENTRKELFYKADGESCSASMMYQEGKFRYRRVAEGTQVLELPFKGDDITMVLILPKPEKSLAKVEKELTPEVLQEWLDELEEMMLVVHMPRFRIEDGFSLKEQLQDMGLVDLFSPEKSKLPGIVAEGRDDLYVSDAFHKAFLEVNEEGSEAAASTELELAGRSLNPNRVTFKANRPFLVFIREVPLNTIIFMGRVANPCVK
notes: as for B2

What was measured:
human thrombin [1] = target: T3, human thrombin (human, UniProt P00734 328-622); experiment: thrombin inhibition rate in the presence of heparin (HAH)
human thrombin [2] = target: T3, human thrombin; experiment: thrombin inhibition rate in the absence of heparin
[3] = target: T1, human neutrophil elastase; experiment: cell-based or functional assay
[4] = target: T2, human neutrophil cathepsin G; experiment: cell-based or functional assay
human thrombin [5] = target: T3, human thrombin; experiment: cell-based or functional assay
human factor Xa = human factor Xa (human, UniProt P00742 41-179; P00742 235-488, limits assumed); experiment: cell-based or functional assay
factor Xa [6] = target: T4, factor Xa (human, UniProt P00742 41-179; P00742 235-488, limits assumed); experiment: heparin cofactor assay, HCA expt #2; ATIII titrated on 10 nM fXa + 50 ug/ml UFH, chromogenic readout
T4 construct: Active factor Xa has a light and a heavy chain; also called fXa
Description: (§1) After 3 minutes, the reactions were quenched with polybrene and chromogenic substrate S2238 (thrombin) or S2765 (fXa), and the initial rate of chromophore production (405 nm) recorded to obtain a measurement residual, uninhibited thrombin or factor Xa. IC50s were determined from plots of ATIII concentration vs. percent residual target enzyme activity.

thrombin [7] = target: T5, thrombin (human, UniProt P00734 328-622); experiment: heparin cofactor assay, HCA expt #2; ATIII titrated on 10 nM thrombin + 50 ug/ml UFH, chromogenic readout
Description: as §1

thrombin [8] = target: T5, thrombin; experiment: cell-based or functional assay
factor Xa [9] = target: T4, factor Xa; experiment: cell-based or functional assay

Sequence of human factor Xa (P00742 41-179 limits assumed, chain 1 of 2): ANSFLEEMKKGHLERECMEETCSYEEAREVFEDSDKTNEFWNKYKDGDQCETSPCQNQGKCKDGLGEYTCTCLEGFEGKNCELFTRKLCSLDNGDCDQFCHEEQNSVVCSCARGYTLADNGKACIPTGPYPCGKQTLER
Sequence of human factor Xa (P00742 235-488 limits assumed, chain 2 of 2): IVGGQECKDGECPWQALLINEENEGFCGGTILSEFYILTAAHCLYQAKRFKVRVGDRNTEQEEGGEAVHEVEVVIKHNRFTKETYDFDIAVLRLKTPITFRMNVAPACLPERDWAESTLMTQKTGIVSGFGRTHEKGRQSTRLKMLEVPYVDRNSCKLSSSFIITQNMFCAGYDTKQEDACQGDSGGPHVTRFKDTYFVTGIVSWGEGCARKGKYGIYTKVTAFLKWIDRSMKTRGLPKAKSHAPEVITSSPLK
T4 sequence (P00742 41-179 limits assumed, form in doubt, chain 1 of 2): as the sequence (P00742 41-179 limits assumed, chain 1 of 2) above
T4 sequence (P00742 235-488 limits assumed, form in doubt, chain 2 of 2): as the sequence (P00742 235-488 limits assumed, chain 2 of 2) above

Row | Binder | Kapp, thrombin HAH (human thrombin [1]) [M⁻¹ s⁻¹] | Kapp, thrombin progressive (human thrombin [2]) [M⁻¹ s⁻¹] | IC50 IIa/UFH (HCA #5) (human thrombin [5]) [nM] | IC50 fXa/UFH (HCA #5) (human factor Xa) [nM] | IC50 (factor Xa [6]) [nM] | IC50 (thrombin [7]) [nM] | rsd. IIa catG; CA expt #7; stg1 conc 200 (thrombin [8]) | rsd. IIa hne; CA expt #7; stg1 conc 200 (thrombin [8]) | rsd. IIa no add; CA expt #7; stg1 conc 200 (thrombin [8]) | rsd. Xa catG; CA expt #7; stg1 conc 200 (factor Xa [9]) | rsd. Xa hne; CA expt #7; stg1 conc 200 (factor Xa [9]) | rsd. Xa no add; CA expt #7; stg1 conc 200 (factor Xa [9]) | rsd. IIa catG; CA expt #8; stg1 conc 200 (thrombin [8]) | rsd. IIa hne; CA expt #8; stg1 conc 200 (thrombin [8]) | rsd. IIa no add; CA expt #8; stg1 conc 200 (thrombin [8]) | rsd. Xa catG; CA expt #8; stg1 conc 200 (factor Xa [9]) | rsd. Xa hne; CA expt #8; stg1 conc 200 (factor Xa [9]) | rsd. Xa no add; CA expt #8; stg1 conc 200 (factor Xa [9]) | other results
1 | B1 | 1.1e+07 | 3000 | 16 | 12 |  |  |  |  |  |  |  |  |  |  |  |  |  |  | rsd IIa, HNE (CA #51, stg 1 conc 200) [3]: 1%; rsd Xa, HNE (CA #51, stg 1 conc 200) [3]: 1%; rsd IIa, catG (CA #51, stg 1 conc 200) [4]: 2%; rsd Xa, catG (CA #51, stg 1 conc 200) [4]: -1%; IC50 IIa/UFH (HCA #6) (human thrombin [5]): 18 nM; rsd IIa, no add (CA #51, stg 1 conc 200) (human thrombin [5]): 1%; IC50 fXa/UFH (HCA #6) (human factor Xa): 19 nM; rsd Xa, no add (CA #51, stg 1 conc 200) (human factor Xa): 1%
2 | B2 |  |  |  |  | 40 | > 1000 | 5 % of activity without ATIII | 14 % of activity without ATIII | 6 % of activity without ATIII | 3 % of activity without ATIII | 3 % of activity without ATIII | 3 % of activity without ATIII |  |  |  |  |  |  | 
3 | B3 | 1.1e+07 | 4100 | 9 | 13 |  |  |  |  |  |  |  |  |  |  |  |  |  |  | 
4 | B4 |  |  |  |  | 34 | 700 | 5 % of activity without ATIII | 4 % of activity without ATIII | 5 % of activity without ATIII | 3 % of activity without ATIII | 3 % of activity without ATIII | 3 % of activity without ATIII |  |  |  |  |  |  | 
5 | B5 |  |  |  |  | 17 | 500 | 5 % of activity without ATIII | 4 % of activity without ATIII | 5 % of activity without ATIII | 2 % of activity without ATIII | 3 % of activity without ATIII | 4 % of activity without ATIII | 30 % of activity without ATIII | 12 % of activity without ATIII | 8 % of activity without ATIII | 1 % of activity without ATIII | 1 % of activity without ATIII | 2 % of activity without ATIII | 
6 | B6 |  |  |  |  | 30 | 600 | 5 % of activity without ATIII | 4 % of activity without ATIII | 5 % of activity without ATIII | 2 % of activity without ATIII | 3 % of activity without ATIII | 4 % of activity without ATIII | 18 % of activity without ATIII | 20 % of activity without ATIII | 13 % of activity without ATIII | 1 % of activity without ATIII | 1 % of activity without ATIII | 1 % of activity without ATIII | 

Source: patent US20060259987A1 (UNIVERSITY OF UTAH RESEARCH FOUNDATION, published 2006)
